Measurements taken from patent US20260008815A1, “CYCLIC PEPTIDE OR SALT THEREOF, AND USES THEREOF” (FUJIFILM Corporation, priority 2023, published 2026).
Bridge positions count the residues as written; N and C are the ends. Ends that are not written are not given here. COCH2 = acetyl group that carries the bridge

B1: cyclic peptide SEQ ID NO: 344 (peptide)
peptide: YCEENYLDPEQYQYFKYFK(COCH2)Y
modifications: thioether 2-19; not fully specified; printed as Y-(C)-EENYLDPEQYQYFKYF-(K(acetyl))-Y
B2: cyclic peptide SEQ ID NO: 341 (peptide)
peptide: YCEENYLDKEQYQYFIYFK(COCH2)Y
modifications: thioether 2-19; not fully specified; printed as Y-(C)-EENYLDKEQYQYFIYF-(K(acetyl))-Y
B3: cyclic peptide SEQ ID NO: 337 (peptide)
peptide: YCEKNYLDPEQYQYFIYFK(COCH2)Y
modifications: thioether 2-19; not fully specified; printed as Y-(C)-EKNYLDPEQYQYFIYF-(K(acetyl))-Y
B4: cyclic peptide SEQ ID NO: 338 (peptide)
peptide: YCEENKLDPEQYQYFIYFK(COCH2)Y
modifications: thioether 2-19; not fully specified; printed as Y-(C)-EENKLDPEQYQYFIYF-(K(acetyl))-Y
B5: cyclic peptide SEQ ID NO: 335 (peptide)
peptide: KCEENYLDPEQYQYFIYFK(COCH2)Y
modifications: thioether 2-19; not fully specified; printed as K-(C)-EENYLDPEQYQYFIYF-(K(acetyl))-Y
B6: cyclic peptide SEQ ID NO: 339 (peptide)
peptide: YCEENYKDPEQYQYFIYFK(COCH2)Y
modifications: thioether 2-19; not fully specified; printed as Y-(C)-EENYKDPEQYQYFIYF-(K(acetyl))-Y
B7: cyclic peptide SEQ ID NO: 340 (peptide)
peptide: YCEENYLKPEQYQYFIYFK(COCH2)Y
modifications: thioether 2-19; not fully specified; printed as Y-(C)-EENYLKPEQYQYFIYF-(K(acetyl))-Y
B8: cyclic peptide SEQ ID NO: 336 (peptide)
peptide: YCKENYLDPEQYQYFIYFK(COCH2)Y
modifications: thioether 2-19; not fully specified; printed as Y-(C)-KENYLDPEQYQYFIYF-(K(acetyl))-Y
B9: cyclic peptide SEQ ID NO: 343 (peptide)
peptide: YCEENYLDPEQYKYFIYFK(COCH2)Y
modifications: thioether 2-19; not fully specified; printed as Y-(C)-EENYLDPEQYKYFIYF-(K(acetyl))-Y
B10: cyclic peptide SEQ ID NO: 345 (peptide)
peptide: YCEENYLDPEQYQYFIKFK(COCH2)Y
modifications: thioether 2-19; not fully specified; printed as Y-(C)-EENYLDPEQYQYFIKF-(K(acetyl))-Y
B11: cyclic peptide SEQ ID NO: 342 (peptide)
peptide: YCEENYLDPKQYQYFIYFK(COCH2)Y
modifications: thioether 2-19; not fully specified; printed as Y-(C)-EENYLDPKQYQYFIYF-(K(acetyl))-Y
B12: cyclic peptide SEQ ID NO: 346 (peptide)
peptide: YCEENYLDPEQYQYFIYFK(COCH2)K
modifications: thioether 2-19; not fully specified; printed as Y-(C)-EENYLDPEQYQYFIYF-(K(acetyl))-K

target: T1, Recombinant Human FGFR2 alpha (IIIc) Fc Chimera Protein, CF (R&D systems, 712-FR-050) (human, UniProt P21802 22-377); assay: ELISA on plate-bound FGFR2-Fc
T1 construct: bought; not shown: Fc part of the chimera
Outline: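 Peptide binding scored by category from dose-response of background-corrected luminescence (FGFR-coated minus uncoated wells). Detection via anti-Myc antibody (2 h, room temperature) after 3 h peptide incubation on wells coated with 5 ng FGFR2 alpha (IIIc)-Fc.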

T1 sequence (P21802 22-377, change not shown): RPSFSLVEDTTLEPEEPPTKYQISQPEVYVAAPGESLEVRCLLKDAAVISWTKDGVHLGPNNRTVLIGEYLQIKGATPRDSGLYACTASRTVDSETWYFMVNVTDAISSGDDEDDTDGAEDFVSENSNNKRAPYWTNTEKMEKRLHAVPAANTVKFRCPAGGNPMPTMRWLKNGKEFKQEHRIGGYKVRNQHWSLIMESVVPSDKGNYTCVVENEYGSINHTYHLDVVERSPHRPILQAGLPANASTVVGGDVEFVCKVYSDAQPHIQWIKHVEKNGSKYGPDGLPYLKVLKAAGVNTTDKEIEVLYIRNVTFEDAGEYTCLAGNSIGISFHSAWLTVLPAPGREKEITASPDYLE

ELISA luminescence signal at 10 nmol/L peptide, relative to SEQ ID NO: 47 (=1) [ratio]	Binder
≥ 0.7	YCEENYLDPEQYQYFIYFK(COCH2)D (thioether 2-19 (inferred)) [cyclic peptide SEQ ID NO: 318]
≥ 0.7	YCEENYLAPEQYQYFIYFK(COCH2)Y (thioether 2-19 (inferred)) [cyclic peptide SEQ ID NO: 328]
≥ 0.7	B1
≥ 0.7	YCEENYLDAEQYQYFIYFK(COCH2)Y (thioether 2-19 (inferred)) [cyclic peptide SEQ ID NO: 329]
0.1 to 0.5	YCEENYADPEQYQYFIYFK(COCH2)Y (thioether 2-19 (inferred)) [cyclic peptide SEQ ID NO: 327]
≥ 0.7	B2
0.1 to 0.5	YCEENYLDPEQMQYFIYFK(COCH2)Y (thioether 2-19) [cyclic peptide SEQ ID NO: 355]
≥ 0.7	YCEENYLMPEQYQYFIYFK(COCH2)Y (thioether 2-19) [cyclic peptide SEQ ID NO: 352]
≥ 0.7	YCEENYLDPEQYQYFAYFK(COCH2)Y (thioether 2-19) [cyclic peptide SEQ ID NO: 332]
≥ 0.7	YCEENYLDPEQYQYFIAFK(COCH2)Y (thioether 2-19) [cyclic peptide SEQ ID NO: 333]
≥ 0.7	YCEENYMDPEQYQYFIYFK(COCH2)Y (thioether 2-19) [cyclic peptide SEQ ID NO: 351]
≥ 0.7	YCEENYLDPMQYQYFIYFK(COCH2)Y (thioether 2-19) [cyclic peptide SEQ ID NO: 354]
0.1 to 0.5	YCEENALDPEQYQYFIYFK(COCH2)Y (thioether 2-19 (inferred)) [cyclic peptide SEQ ID NO: 326]
≥ 0.7	YCEENYLDPEQYQYFIYFK(COCH2)E (thioether 2-19 (inferred)) [cyclic peptide SEQ ID NO: 319]
≥ 0.7	YCEENYLDPEQYQYFIYFK(COCH2)H (thioether 2-19 (inferred)) [cyclic peptide SEQ ID NO: 321]
≥ 0.7	B3
≥ 0.7	YCEENYLDPEQYQYFIYFK(COCH2)A (thioether 2-19) [cyclic peptide SEQ ID NO: 334]
≥ 0.7	YCMENYLDPEQYQYFIYFK(COCH2)Y (thioether 2-19) [cyclic peptide SEQ ID NO: 348]
≥ 0.7	YCEMNYLDPEQYQYFIYFK(COCH2)Y (thioether 2-19) [cyclic peptide SEQ ID NO: 349]
0.1 to 0.5	B4
≥ 0.7	B5

ELISA luminescence signal at 10 nmol/L peptide, relative to SEQ ID NO: 47 (=1) [ratio]	Binder
≥ 0.7	B6
0.1 to 0.5	YCEEAYLDPEQYQYFIYFK(COCH2)Y (thioether 2-19 (inferred)) [cyclic peptide SEQ ID NO: 325]
≥ 0.7	YCEENYLDPEQYMYFIYFK(COCH2)Y (thioether 2-19) [cyclic peptide SEQ ID NO: 356]
≥ 0.7	ACEENYLDPEQYQYFIYFK(COCH2)Y (thioether 2-19 (inferred)) [cyclic peptide SEQ ID NO: 322]
≥ 0.7	MCEENYLDPEQYQYFIYFK(COCH2)Y (thioether 2-19) [cyclic peptide SEQ ID NO: 347]
0.1 to 0.5	B7
≥ 0.7	YCEENYLDPAQYQYFIYFK(COCH2)Y (thioether 2-19 (inferred)) [cyclic peptide SEQ ID NO: 330]
≥ 0.7	B8
≥ 0.7	B9
≥ 0.7	YCEENYLDPEQYQYFIYFK(COCH2)R (thioether 2-19 (inferred)) [cyclic peptide SEQ ID NO: 320]
0.1 to 0.5	YCEENYLDPEQYQMFIYFK(COCH2)Y (thioether 2-19) [cyclic peptide SEQ ID NO: 357]
≥ 0.7	B10
≥ 0.7	YCEENYLDPEQYQYFMYFK(COCH2)Y (thioether 2-19) [cyclic peptide SEQ ID NO: 358]
≥ 0.7	YCAENYLDPEQYQYFIYFK(COCH2)Y (thioether 2-19 (inferred)) [cyclic peptide SEQ ID NO: 323]
≥ 0.7	YCEENYLDMEQYQYFIYFK(COCH2)Y (thioether 2-19) [cyclic peptide SEQ ID NO: 353]
≥ 0.7	B11
≥ 0.7	YCEANYLDPEQYQYFIYFK(COCH2)Y (thioether 2-19 (inferred)) [cyclic peptide SEQ ID NO: 324]
≥ 0.7	YCEENMLDPEQYQYFIYFK(COCH2)Y (thioether 2-19) [cyclic peptide SEQ ID NO: 350]
≥ 0.7	B12
≥ 0.7	YCEENYLDPEQYAYFIYFK(COCH2)Y (thioether 2-19) [cyclic peptide SEQ ID NO: 331]
